Measured values reported in patent US20230025280A1, “PH RESPONSIVE COMPOSITIONS, FORMULATIONS, AND METHODS OF IMAGING A TUMOR” (ONCONANO MEDICINE, INC, priority 2019, published 2023).
Where “and” joins values, the source holds several entries; their conditions need not be identical. Equal entries are not always repeated. Entries after “also recorded” stand apart in the source; their conditions may differ.

Assay: Phase 1 (1a/1b) pharmacokinetics: plasma concentrations after single IV dose (validated direct fluorescence reader assay), noncompartmental analysis
Assay type: in vivo, human
Conditions: for AUC0-24 hr / AUCall / AUClast / C10 m / Cmax / T1/2 / Tmax: 1.2 mg/kg single IV; for Plasma Conc: 1.20 mg/kg
Excerpt: Phase 1 is a single-Principal Investigator, non-randomized, open-label, single-arm, cross-sectional study to evaluate the safety, PK profile, and imaging feasibility of Compound 1 in patients with solid cancers who require surgical excision. The main purpose of this study was to investigate the safety, PK, and feasibility of Compound 1 as an intra-operative optical imaging agent to detect tumors and metastatic lymph nodes in solid cancers. The study was intended to investigate the optimal dose range of Compound 1 for an adequate TBR and CNR of fluorescence obtained intraoperatively at 24 (±8) hours post dosing and with ex vivo specimens using ICG compatible cameras and imaging devices.
Phase 1 enrolled 30 patients with solid cancers (HNSCC, breast cancer, esophageal cancer, or colorectal cancer) who have a biopsy-confirmed diagnosis of respective tumor types and are scheduled to undergo surgical resection of the tumor. The study design included a standard 3+3 design for the dose-escalation portion (Phase 1a; N=18 maximum) followed by a dose-expansion portion (Phase 1b; N=15). All patients received a single I.V. dose of Compound 1, followed by routine surgery approximately 24 hours after infusion of Compound 1.
Phase 1a was a dose-finding study performed in 5 cohorts of 3 patients each. The dose levels evaluated were […], and 1.2 mg/kg, in this sequence. Inter-cohort dose escalation took place after the last patient in the previous cohort completed the Day 10 safety assessment. Safety, PK, and imaging feasibility were evaluated in both the Phase 1a and 1b portions of the study. Patient safety is assessed during the study and for up to 10 days post-dose.
Study design: Single Compound 1 IV dose was administered as a 1-5 minute IV infusion to patients in five cohorts (0.1, 0.3, 0.5, 0.8, and 1.2 mg/kg) with three patients per cohort in Phase 1a and 15 patients at a dose of 1.2 mg/kg in Phase 1b. Patient demographic information including tumor types is presented in Table 4 and 5 for Phase 1a and Table 5 for Phase 1b. Intertek Pharmaceutical Services (San Diego, Calif.) determined Compound 1 plasma concentrations using a validated direct fluorescence reader assay. Pacific BioDevelopment (Davis, Calif.) performed the PK analysis.
Sample collection: Blood samples were collected prior to infusion and at 10 minutes and 0.5, 1, 3, 8, 24, 48, 72, and 240 hours after infusion.
Analysis: Plasma concentration versus time profiles were generated for each patient. Pharmacokinetic parameters were estimated using Phoenix WinNonlin (version 8.0). According to SOP, concentrations reported as BQL were set to 0 except for the 0.5 h sample for subject #ON1102, which was set to LLOQ/2 ([…] value used in parameter calculations) and the 24 and 48 h samples.
If the coefficient of determination for the terminal slope estimation was less than 0.8, T1/2 was not reported (NR). AUC extrapolated to infinity is not reported for any data set because in all cases the % extrapolated AUC was greater than 20% and thus the AUCinf estimate would not be reliable. The concentration at 10 minutes, the first time point measured (C10m), was also reported for each patient.
The area under the plasma concentration versus time curves from dosing to the last time point with a measurable concentration (AUClast) was estimated by the linear trapezoid method. The last three or more time points were used to estimate the elimination rate constant (λz) which was used to estimate the terminal-phase half-life (T1/2) and AUC from zero to infinity (AUCINF) from the following equations: […]

Substance: PEO90-140-b-P(DBA60-150-r-ICG0-3-r-AMA0-3) [Compound 1]
- AUC0-24 hr (Phase 1a, mean): 495 µg·h/mL
- AUCall (Phase 1a, mean): 842 µg·h/mL
- AUClast (Phase 1a, mean): 682 µg·h/mL
- C10 m (Phase 1a, mean): 31.7 µg/mL
- Cmax (Phase 1a, mean): 31700 ng/mL
- T1/2 (Phase 1a, mean): 36.5 h
- Tmax (Phase 1a, mean): 0.170 h
- AUC0-24 hr (Phase 1a, median): 563 µg·h/mL
- AUCall (Phase 1a, median): 1020 µg·h/mL
- AUClast (Phase 1a, median): 891 µg·h/mL
- C10 m (Phase 1a, median): 33.0 µg/mL
- Cmax (Phase 1a, median): 33000 ng/mL
- T1/2 (Phase 1a, median): 32.5 h
- Tmax (Phase 1a, median): 0.170 h
- Plasma Conc (Phase 1a, 0.170 hr, individual subject): 28000 ng/mL and 34100 ng/mL and 33000 ng/mL
- Plasma Conc (Phase 1a, 0.170 hr, mean): 31700 ng/mL
- Plasma Conc (Phase 1a, 0.500 hr, individual subject): 23900 ng/mL and 30500 ng/mL and 31800 ng/mL
- Plasma Conc (Phase 1a, 0.500 hr, mean): 28700 ng/mL
- Plasma Conc (Phase 1a, 1.00 hr, individual subject): 23900 ng/mL and 32100 ng/mL and 25800 ng/mL
- Plasma Conc (Phase 1a, 1.00 hr, mean): 27300 ng/mL
- Plasma Conc (Phase 1a, 3.00 hr, individual subject): 24500 ng/mL and 28400 ng/mL and 27800 ng/mL
- Plasma Conc (Phase 1a, 3.00 hr, mean): 26900 ng/mL
- Plasma Conc (Phase 1a, 8.00 hr, individual subject): 20500 ng/mL and 24400 ng/mL and 28400 ng/mL
- Plasma Conc (Phase 1a, 8.00 hr, mean): 24400 ng/mL
- Plasma Conc (Phase 1a, 24.0 hr, individual subject): BQL (BQL (<10 μg/mL), set = 0 for PK analysis) and 18.3 μg/mL and 15.6 μg/mL
- Plasma Conc (Phase 1a, 24.0 hr, mean): 11300 ng/mL
- Plasma Conc (Phase 1a, 48.0 hr, individual subject): BQL (BQL (<10 μg/mL), set = 0 for PK analysis) and 15.6 μg/mL and 10.8 μg/mL
- Plasma Conc (Phase 1a, 48.0 hr, mean): 8800 ng/mL
- Plasma Conc (Phase 1a, 72.0 hr, individual subject): BQL (BQL (<10 μg/mL), set = 0 for PK analysis)
- Plasma Conc (Phase 1a, 72.0 hr, mean): 0 ng/mL
- Plasma Conc (Phase 1a, 240 hr, individual subject): BQL (BQL (<10 μg/mL), set = 0 for PK analysis)
- Plasma Conc (Phase 1a, 240 hr, mean): 0 ng/mL
- Exposure in relation to dose (Phase 1a, 0.1-1.2 mg/kg): dose-related; also recorded: increased proportionally with dose
- Mean AUC0-24hr (Phase 1b, 1.2 mg/kg): 638 µg·h/mL
- Mean terminal-phase half-life (Phase 1b, 1.2 mg/kg): 46.4 h
- AUC0-24 hr (Phase 1b, individual subject): 625 µg·h/mL and 606 µg·h/mL and 502 µg·h/mL and 787 µg·h/mL and 730 µg·h/mL and 585 µg·h/mL and 740 µg·h/mL and 630 µg·h/mL and 684 µg·h/mL and 626 µg·h/mL and 693 µg·h/mL and 562 µg·h/mL and 565 µg·h/mL and 520 µg·h/mL and 721 µg·h/mL
- AUCall (Phase 1b, individual subject): 2690 µg·h/mL and 2150 µg·h/mL and 2120 µg·h/mL and 1460 µg·h/mL and 2550 µg·h/mL and 1100 µg·h/mL and 2740 µg·h/mL and 1170 µg·h/mL and 939 µg·h/mL and 1090 µg·h/mL and 3190 µg·h/mL and 1120 µg·h/mL and 747 µg·h/mL and 3350 µg·h/mL
- AUClast (Phase 1b, individual subject): 1430 µg·h/mL and 1280 µg·h/mL and 1110 µg·h/mL and 1270 µg·h/mL and 1480 µg·h/mL and 961 µg·h/mL and 1580 µg·h/mL and 1020 µg·h/mL and 684 µg·h/mL and 971 µg·h/mL and 1740 µg·h/mL and 968 µg·h/mL and 957 µg·h/mL and 520 µg·h/mL and 1780 µg·h/mL
- C10 m (Phase 1b, individual subject): 30.3 µg/mL and 31.4 µg/mL and 25.5 µg/mL and 40.0 µg/mL and 47.6 µg/mL and 32.6 µg/mL and 31.3 µg/mL and 36.5 µg/mL and 32.1 µg/mL and 35.8 µg/mL and 33.0 µg/mL and 28.0 µg/mL and 28.5 µg/mL and 27.5 µg/mL and 38.6 µg/mL
- Cmax (Phase 1b, individual subject): 32400 ng/mL and 32600 ng/mL and 27600 ng/mL and 42200 ng/mL and 47600 ng/mL and 34300 ng/mL and 37700 ng/mL and 34100 ng/mL and 36400 ng/mL and 32000 ng/mL and 29900 ng/mL and 29200 ng/mL and 38600 ng/mL
- T1/2 (Phase 1b, individual subject): 43.3 h and 61.4 h and 34.4 h and 38.4 h and 33.6 h and 46.8 h and 34.5 h and 33.4 h and 27.7 h and 83.0 h and 45.5 h and 42.6 h and 77.9 h
- Tmax (Phase 1b, individual subject): 3.00 h and 1.00 h and 0.500 h and 0.170 h
